Reference: paper PMC7261163 (Nucleic Acids Research, 2020)

Legend:
Mom = target: T1, Mom (Escherichia phage Mu, UniProt P06018); assay: microscale thermophoresis, fluorescently labelled Mom; format: binding
T1 sequence (P06018 12-241): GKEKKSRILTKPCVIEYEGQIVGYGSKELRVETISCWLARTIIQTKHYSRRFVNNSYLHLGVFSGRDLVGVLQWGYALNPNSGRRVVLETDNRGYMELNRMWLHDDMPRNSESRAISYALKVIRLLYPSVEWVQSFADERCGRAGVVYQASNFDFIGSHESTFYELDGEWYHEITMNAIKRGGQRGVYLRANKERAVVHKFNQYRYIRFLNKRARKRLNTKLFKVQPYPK

[1] = target: Mom (bacteriophage Mu), untagged, purified (bacteriophage Mu) (UniProt P06018); assay: cross-linking
[2] = target: Mom (bacteriophage Mu), untagged, purified (bacteriophage Mu) (UniProt P06018); assay: SEC

| Compound | Kd (Mom) | stoichiometry N [1] | stoichiometry N [2] |
| --- | --- | --- | --- |
| CC(=O)SCCNC(=O)CCNC(=O)[C@H](O)C(C)(C)COP(=O)(O)OP(=O)(O)OC[C@H]1O[C@@H](n2cnc3c(N)ncnc32)[C@H](O)[C@@H]1OP(=O)(O)O [acetyl CoA] | ~49 µM | – | – |
| Mom (bacteriophage Mu), untagged, purified (from UniProt P06018 2-241) (enzyme) | – | 2 | 2 |
